This is an account of results in US7087405 (dated 2006).

One assay has as its target T1, integrin alphavbeta5 (human, UniProt P06756).
T1 chain 1: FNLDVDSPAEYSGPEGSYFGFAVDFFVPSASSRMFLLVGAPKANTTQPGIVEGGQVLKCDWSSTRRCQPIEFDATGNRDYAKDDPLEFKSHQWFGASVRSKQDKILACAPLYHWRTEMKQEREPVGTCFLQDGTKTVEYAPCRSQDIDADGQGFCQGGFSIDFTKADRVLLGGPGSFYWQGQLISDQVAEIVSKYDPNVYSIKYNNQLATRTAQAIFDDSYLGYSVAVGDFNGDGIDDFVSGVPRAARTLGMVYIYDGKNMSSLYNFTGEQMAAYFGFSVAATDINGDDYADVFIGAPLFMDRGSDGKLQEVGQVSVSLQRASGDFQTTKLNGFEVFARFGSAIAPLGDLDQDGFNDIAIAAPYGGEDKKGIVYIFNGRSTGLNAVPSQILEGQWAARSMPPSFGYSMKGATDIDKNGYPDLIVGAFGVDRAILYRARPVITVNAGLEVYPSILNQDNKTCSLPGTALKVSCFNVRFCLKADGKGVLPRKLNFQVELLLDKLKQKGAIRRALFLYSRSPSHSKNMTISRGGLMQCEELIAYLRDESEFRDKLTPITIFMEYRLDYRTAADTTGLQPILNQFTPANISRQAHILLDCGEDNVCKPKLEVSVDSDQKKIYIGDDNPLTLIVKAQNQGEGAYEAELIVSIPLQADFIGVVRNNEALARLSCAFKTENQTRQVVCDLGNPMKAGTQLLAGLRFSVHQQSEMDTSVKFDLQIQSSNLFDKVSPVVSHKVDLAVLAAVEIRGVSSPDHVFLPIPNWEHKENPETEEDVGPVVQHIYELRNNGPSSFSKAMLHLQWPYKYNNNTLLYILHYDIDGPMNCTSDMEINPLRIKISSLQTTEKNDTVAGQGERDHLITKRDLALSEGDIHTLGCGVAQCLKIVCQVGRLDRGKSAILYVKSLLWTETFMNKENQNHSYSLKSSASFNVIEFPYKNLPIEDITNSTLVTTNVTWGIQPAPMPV
T1 chain 2: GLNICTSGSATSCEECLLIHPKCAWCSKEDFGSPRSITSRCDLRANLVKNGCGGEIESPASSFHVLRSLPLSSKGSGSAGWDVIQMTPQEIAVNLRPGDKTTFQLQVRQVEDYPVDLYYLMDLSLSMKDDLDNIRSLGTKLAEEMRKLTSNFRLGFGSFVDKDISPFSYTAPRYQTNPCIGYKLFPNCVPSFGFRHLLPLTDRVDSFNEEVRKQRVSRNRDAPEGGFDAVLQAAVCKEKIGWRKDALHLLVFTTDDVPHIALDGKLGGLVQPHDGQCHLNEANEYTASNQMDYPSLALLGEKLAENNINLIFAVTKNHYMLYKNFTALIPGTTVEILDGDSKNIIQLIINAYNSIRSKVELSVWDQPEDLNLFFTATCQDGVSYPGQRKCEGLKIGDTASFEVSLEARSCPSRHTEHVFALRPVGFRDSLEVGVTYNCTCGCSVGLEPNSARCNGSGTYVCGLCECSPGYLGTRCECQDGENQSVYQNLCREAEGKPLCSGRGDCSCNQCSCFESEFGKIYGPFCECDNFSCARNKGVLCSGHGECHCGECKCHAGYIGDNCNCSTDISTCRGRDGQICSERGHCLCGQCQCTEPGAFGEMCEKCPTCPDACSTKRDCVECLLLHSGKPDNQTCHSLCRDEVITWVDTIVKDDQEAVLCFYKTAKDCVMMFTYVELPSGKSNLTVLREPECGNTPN
Description: SPR, receptor immobilized, bivalent. (Surface plasmon resonance follows binding to a sensor surface in real time, without labels.)

In assay [1] the target is T2, integrin alphavbeta3 (human, UniProt P06756).
T2 chain 1: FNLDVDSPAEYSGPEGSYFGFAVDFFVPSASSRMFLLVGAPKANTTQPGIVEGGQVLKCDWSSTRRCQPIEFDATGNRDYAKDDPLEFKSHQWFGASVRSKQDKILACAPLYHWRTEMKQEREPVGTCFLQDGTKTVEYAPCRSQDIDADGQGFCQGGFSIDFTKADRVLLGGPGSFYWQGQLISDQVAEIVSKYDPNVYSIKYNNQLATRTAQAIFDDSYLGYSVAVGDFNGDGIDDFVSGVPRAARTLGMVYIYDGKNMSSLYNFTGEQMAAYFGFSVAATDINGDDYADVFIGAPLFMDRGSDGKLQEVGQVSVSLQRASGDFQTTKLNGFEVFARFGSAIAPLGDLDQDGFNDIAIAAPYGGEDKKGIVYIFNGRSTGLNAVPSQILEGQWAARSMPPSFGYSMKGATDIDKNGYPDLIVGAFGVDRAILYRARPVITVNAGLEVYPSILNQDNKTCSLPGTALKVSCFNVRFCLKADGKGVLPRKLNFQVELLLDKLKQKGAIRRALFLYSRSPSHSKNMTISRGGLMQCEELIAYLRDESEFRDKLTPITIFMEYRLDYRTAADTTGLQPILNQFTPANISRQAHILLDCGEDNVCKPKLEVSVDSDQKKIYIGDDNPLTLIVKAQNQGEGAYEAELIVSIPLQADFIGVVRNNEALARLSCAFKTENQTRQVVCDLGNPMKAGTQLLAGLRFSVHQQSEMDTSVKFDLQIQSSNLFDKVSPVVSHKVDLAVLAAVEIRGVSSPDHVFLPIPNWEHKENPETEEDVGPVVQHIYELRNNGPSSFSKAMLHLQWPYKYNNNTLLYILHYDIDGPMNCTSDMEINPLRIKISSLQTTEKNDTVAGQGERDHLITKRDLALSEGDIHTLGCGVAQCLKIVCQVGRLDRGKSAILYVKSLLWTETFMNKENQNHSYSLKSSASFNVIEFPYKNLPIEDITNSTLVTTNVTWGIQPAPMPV
T2 chain 2: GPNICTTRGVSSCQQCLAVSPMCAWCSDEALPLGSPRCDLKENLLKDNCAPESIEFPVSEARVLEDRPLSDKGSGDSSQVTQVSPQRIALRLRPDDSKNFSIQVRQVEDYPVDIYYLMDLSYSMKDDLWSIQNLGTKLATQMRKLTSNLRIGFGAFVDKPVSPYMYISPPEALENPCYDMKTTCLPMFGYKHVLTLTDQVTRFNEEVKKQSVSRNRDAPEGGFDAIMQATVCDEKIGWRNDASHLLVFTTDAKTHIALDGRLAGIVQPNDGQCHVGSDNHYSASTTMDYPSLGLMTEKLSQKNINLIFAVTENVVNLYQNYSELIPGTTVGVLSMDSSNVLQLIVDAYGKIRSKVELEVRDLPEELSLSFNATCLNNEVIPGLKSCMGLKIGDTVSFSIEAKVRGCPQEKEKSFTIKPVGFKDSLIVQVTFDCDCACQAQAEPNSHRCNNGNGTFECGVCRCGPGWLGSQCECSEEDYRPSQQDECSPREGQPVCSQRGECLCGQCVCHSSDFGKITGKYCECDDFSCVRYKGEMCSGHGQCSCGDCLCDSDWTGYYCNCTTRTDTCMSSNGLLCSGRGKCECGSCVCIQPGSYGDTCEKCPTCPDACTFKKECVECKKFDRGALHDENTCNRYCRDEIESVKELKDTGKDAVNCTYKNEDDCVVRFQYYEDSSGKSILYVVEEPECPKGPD
Nature of the assay: SPR, receptor immobilized, bivalent.

The target in assay [2] is T2, integrin alphavbeta3. Nature of the assay: SPR, mAb captured on Protein A.

B1: murine B9 (antibody, V domains shown)
VH: QVQLQQSGAELMKPGASVKISCKATGYTFSSYWIEWVKQRPGHGLEWIGEILPRSGNTNYNEKFKGKATFTAETSSNTAYMQLSSLTPEDSAVYYCSSRGVRGSMDYWGQGTSVTVSS
VL: DIQMTQTTSSLSASLGDRVTITCRSSQDISNFLNWYQQKPDGTVKLLIYYTSTLHSGVPSRFSGSGSGTDYSLTISNLEQEDIATYFCQQGNTLPWTFGGGTNLEIKR
For B1, the Kd turned out to be 0.11 nM with integrin alphavbeta5 and 0.29 nM with integrin alphavbeta3 [1].

B2: B9HL1G1 (antibody)
chain 1: QVQLVQSGAEVKKPGASVKVSCKASGYTFSSYWIEWVKQAPGQGLEWIGEILPRSGNTNYNEKFKGKATFTADTSTSTAYMELSSLRSEDTAVYYCSSRGVRGSMDYWGQGTLVTVSS
chain 2: DIQMTQSPSSLSASVGDRVTITCRSSQDISNFLNWYQQKPGKAPKLLIYYTSTLHSGVPSRFSGSGSGTDYTLTISSLQPEDFATYYCQQGNTASLDVRWRY
As to B2, the Kd in the assay with integrin alphavbeta3 [2] was 8.2 nM.

B3: B9HL1G4 (antibody)
chain 1: QVQLVQSGAEVKKPGASVKVSCKASGYTFSSYWIEWVKQAPGQGLEWIGEILPRSGNTNYNEKFKGKATFTADTSTSTAYMELSSLRSEDTAVYYCSSRGVRGSMDYWGQGTLVTVSS
chain 2: DIQMTQSPSSLSASVGDRVTITCRSSQDISNFLNWYQQKPGKAPKLLIYYTSTLHSGVPSRFSGSGSGTDYTLTISSLQPEDFATYYCQQGNTASLDVRWRY
B3 returned a Kd in the assay with integrin alphavbeta3 [2] of 5.4 nM.

B4: B9HL2G1 (antibody, V domains shown)
VH: QVQLVQSGAEVKKPGASVKVSCKASGYTFSSYWIEWVKQAPGQGLEWIGEILPRSGNTNYNEKFKGKATFTADTSTSTAYMELSSLRSEDTAVYYCSSRGVRGSMDYWGQGTLVTVSS
VL: DIQMTQSPSSLSASVGDRVTITCRSSQDISNFLNWYQQKPGKAPKLLIYYTSTLHSGVPSRFSGSGSGTDYTFTISSLQPEDIATYYCQQGNTLPWTFGGGT
Turning to B4, the Kd with integrin alphavbeta3 [2] turned out to be 7.1 nM.

B5: B9HH1G1/HL3K (antibody, V domains shown)
VH: QVQLVQSGAEVKKPGASVKVSCKASGYTFSSYWIEWVKQAPGQGLEWIGEILPRSGNTNYNEKFKGKATFTADTSTSTAYMELSSLRSEDTAVYYCSSRGVRGSMDYWGQGTLVTVSS
VL: DIQMTQSPSSLSASVGDRVTITCRSSQDISNFLNWYQQKPGKAPKLLIYYTSTLHSGVPSRFSGSGSGTDYTLTISSLQPEDFATYYCQQGNTLPWTFGGGTNVE
Consider B5, for which the Kd with integrin alphavbeta3 [2] was 6.9 nM.
